Measured values: patent US20220041738A1 (SAITAMA MEDICAL UNIVERSITY, published 2022)

T1: human ALK2-G328R on cells (human, UniProt Q04771 21-509)
T1 sequence: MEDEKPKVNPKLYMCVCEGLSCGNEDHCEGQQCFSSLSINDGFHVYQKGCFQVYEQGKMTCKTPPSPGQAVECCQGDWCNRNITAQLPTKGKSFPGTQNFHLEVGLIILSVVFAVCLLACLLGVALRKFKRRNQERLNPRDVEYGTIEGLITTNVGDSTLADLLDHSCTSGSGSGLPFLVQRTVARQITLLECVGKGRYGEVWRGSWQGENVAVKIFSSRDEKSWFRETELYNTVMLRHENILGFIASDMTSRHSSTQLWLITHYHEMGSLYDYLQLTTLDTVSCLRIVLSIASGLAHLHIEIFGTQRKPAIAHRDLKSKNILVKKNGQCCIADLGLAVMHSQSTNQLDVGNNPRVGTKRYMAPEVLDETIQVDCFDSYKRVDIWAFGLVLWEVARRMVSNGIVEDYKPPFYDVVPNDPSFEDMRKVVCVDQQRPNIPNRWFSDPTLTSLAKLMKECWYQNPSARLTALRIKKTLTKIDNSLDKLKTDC

T2: human ALK2-Q207E on cells (human, UniProt Q04771 21-509)
T2 sequence: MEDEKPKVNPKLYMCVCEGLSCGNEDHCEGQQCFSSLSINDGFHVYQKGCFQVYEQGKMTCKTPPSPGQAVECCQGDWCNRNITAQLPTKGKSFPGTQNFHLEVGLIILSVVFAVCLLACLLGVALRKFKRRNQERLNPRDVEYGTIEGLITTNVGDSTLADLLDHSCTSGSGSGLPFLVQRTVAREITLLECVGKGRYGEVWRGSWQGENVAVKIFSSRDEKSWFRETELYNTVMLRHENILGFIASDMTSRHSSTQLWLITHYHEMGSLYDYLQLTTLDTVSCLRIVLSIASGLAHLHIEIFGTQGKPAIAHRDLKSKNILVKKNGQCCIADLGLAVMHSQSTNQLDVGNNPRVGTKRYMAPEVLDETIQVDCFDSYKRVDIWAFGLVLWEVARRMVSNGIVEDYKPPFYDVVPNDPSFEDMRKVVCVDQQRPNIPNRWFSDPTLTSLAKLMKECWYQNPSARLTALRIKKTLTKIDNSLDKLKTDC

T3: human ALK2-R206H on cells (human, UniProt Q04771 21-509)
T3 sequence: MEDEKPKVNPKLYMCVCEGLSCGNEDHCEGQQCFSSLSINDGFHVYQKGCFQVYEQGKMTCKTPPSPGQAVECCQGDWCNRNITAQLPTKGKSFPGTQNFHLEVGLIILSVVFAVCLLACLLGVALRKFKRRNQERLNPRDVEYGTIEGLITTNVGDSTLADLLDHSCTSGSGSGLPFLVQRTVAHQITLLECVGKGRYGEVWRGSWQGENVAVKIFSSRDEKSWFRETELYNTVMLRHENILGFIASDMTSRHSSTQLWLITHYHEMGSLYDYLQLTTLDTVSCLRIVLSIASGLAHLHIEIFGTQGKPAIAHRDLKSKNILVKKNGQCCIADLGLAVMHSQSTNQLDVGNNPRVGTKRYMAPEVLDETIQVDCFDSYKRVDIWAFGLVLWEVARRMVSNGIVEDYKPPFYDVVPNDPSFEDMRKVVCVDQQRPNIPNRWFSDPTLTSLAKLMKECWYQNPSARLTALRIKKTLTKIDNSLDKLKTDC

T4: human ALK2-G328W on cells (human, UniProt Q04771 21-509)
T4 sequence: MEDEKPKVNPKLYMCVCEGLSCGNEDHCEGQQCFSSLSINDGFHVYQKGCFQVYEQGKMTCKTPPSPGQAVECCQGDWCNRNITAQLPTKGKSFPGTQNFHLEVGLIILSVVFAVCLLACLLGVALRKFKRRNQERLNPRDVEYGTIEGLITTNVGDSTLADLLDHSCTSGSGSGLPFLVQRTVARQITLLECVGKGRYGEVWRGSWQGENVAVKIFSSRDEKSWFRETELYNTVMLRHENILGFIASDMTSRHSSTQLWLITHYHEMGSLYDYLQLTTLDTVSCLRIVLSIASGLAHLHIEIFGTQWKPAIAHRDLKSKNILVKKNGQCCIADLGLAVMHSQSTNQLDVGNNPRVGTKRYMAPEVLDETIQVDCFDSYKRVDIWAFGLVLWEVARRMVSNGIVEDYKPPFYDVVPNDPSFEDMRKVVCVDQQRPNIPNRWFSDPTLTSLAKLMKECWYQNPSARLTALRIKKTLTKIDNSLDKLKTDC


Columns and labels:
Assay in all cases: immunofluorescence on transfected, formalin-fixed C2C12 cells, IgG at 10 µg/mL, Alexa 594 anti-rat IgG
[1] = target: T1, human ALK2-G328R on cells
Method: (§1) Mouse C2C12 cells were seeded into a 96-well plate (Greiner Bio-One) at 0.5×10³ cells/well, and cultured in 15% FBS-containing DMEM medium overnight under the conditions of 5% CO₂ at 37° C. On the following day, the C2C12 cells were transfected with each of a wild-type human ALK2 cDNA integrated into pcDEF3; pcDEF3/human ALK2-L196P, pcDEF3/human ALK2-P197_F198delinsL, pcDEF3/human ALK2-R202I, pcDEF3/human ALK2-R206H, pcDEF3/human ALK2-Q207E, pcDEF3/human ALK2-R258S, pcDEF3/human ALK2-G325A, pcDEF3/human ALK2-G328E, pcDEF3/human ALK2-G328R, pcDEF3/human ALK2-G328W, pcDEF3/human ALK2-G356D, and pcDEF3/human ALK2-R375P, which are variants identified in FOP; and pcDEF3 as a control, using Lipofectamine 2000 (Invitrogen), and further cultured overnight.
(§2) The C2C12 cells were fixed with 10% neutral formalin (Nacalai Tesque, Japan) for 20 minutes at room temperature, and then blocked with 10% goat normal serum for 30 minutes. After the blocking agent was removed, purified IgG diluted to 10 μg/mL with the blocking agent was added, and the cells were left for 1 hour at room temperature. After the cells were washed with PBS three times, Goat Alexa 594-conjugated anti-rat IgG (Invitrogen) diluted to 1:1000 with the blocking agent was added, and the cells were left for 1 hour at room temperature. After the cells were washed with PBS three times, the cells were fixed with 10% neutral formalin for 15 minutes at room temperature, and nuclear-stained with DAPI (LifeTechnologies). Fluorescent signals were analyzed with a fluorescence microscope BZ-9000 (Keyence).

[2] = target: T2, human ALK2-Q207E on cells
Method: as §1, §2

[3] = target: T3, human ALK2-R206H on cells
Method: as §1, §2

[4] = target: T4, human ALK2-G328W on cells
Method: as §1, §2

Row | binding result [1] | binding result [2] | binding result [3] | binding result [4] | Binder
1 | binds | binds | binds | binds | rat anti-ALK2 monoclonal antibody A2-25C (antibody, V domains shown, Rat monoclonal IgG from a hybridoma; also called 25C11) VH: EVQLVESGGGLVQPGGSLKLSCAASGFTFSYYAMSWVCQAPTKGLEWVASISRGGDNTYYRDTVKGRFTTSRDNAKNTLYLQMDSLRSEDTATYYCARLNYNNYFDYWGQGVMVTVSS VL: DIQMTQSPASLSASLEEIVTITCQASQDIGNWLSWYQQKPGKSPQLLIYGATSLADGVPSRFSGSRSGTQYSLKISRLRVEDIGIYYCLQAYSAPFTFGSGTKLEIKR
2 | binds | binds | binds | binds | rat anti-ALK2 monoclonal antibody A2-27D (antibody, V domains shown, Rat monoclonal IgG from a hybridoma; also called 27D11) VH: EVQLVESGGGLVQPGRSLKLSCLASGSTFSNYGMKWIRQAPGKGLEWVASISRSSTYIYYADTVKGRFTISRDNARNTLYLQMTSLRSEDTALYYCAAAISTPFYWYFDFWGPGTVVTVSS VL: EIVLTQSPTTMAASPGEKVTLNCLASSSVSYMTWYQQKSGASPKLWIYGTSNLASGVPNRFSGSGSGTSYSLAISSMEAEDVATYYCLHLTSYPPYTFGAGTKLELKR
